In series [1] the target is T1, VvGT5 (Vitis vinifera, UniProt C7G3B5).
T1 sequence (C7G3B5 1-459): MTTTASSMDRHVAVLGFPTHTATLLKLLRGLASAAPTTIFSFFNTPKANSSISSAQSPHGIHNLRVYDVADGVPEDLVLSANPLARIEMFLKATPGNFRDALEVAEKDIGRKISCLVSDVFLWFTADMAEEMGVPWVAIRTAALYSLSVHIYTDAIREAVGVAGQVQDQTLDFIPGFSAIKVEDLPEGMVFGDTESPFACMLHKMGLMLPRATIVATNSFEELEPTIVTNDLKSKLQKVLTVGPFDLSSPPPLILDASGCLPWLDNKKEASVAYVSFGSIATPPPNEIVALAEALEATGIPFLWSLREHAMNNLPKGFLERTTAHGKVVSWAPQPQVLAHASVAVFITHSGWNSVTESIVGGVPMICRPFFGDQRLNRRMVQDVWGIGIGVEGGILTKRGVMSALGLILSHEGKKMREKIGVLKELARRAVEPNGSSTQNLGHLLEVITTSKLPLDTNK
Nature of the series: Glycosyl acceptor specificity of VvGT5, product amount by HPLC. Format: biochemical. The settings on record: 100 µM glycosyl acceptor, 1 mM UDP-glucuronic acid, pH 9.5, 30°C, 15 minutes. How it is done:
Next, the glycosyl acceptor specificity of this enzyme was examined. […] The reaction was started by adding the glycosyl acceptor. The reaction was stopped by adding an equal volume of 40% acetonitrile solution containing 0.1% TFA. After the reaction was stopped, the solution was centrifuged (15000 rpm, 2 mins., 4°C) and 100 µl of the resulting supernatant was provided for the HPLC analysis. The amounts of the products produced were compared for each glycosyl acceptor.
Anthocyanins were analyzed under the conditions below using the HPLC system described above. Conditions for the HPLC analysis of anthocyanins were as follows. Asahipak ODP-50 4E (4.6 x 250 mm, Showa Denko K.K.) as a column was used at room temperature. Moving phase A (0.5% TFA/H2O) and moving phase B (0.5% TFA/50% GH3CN) were used. Conditions for elution were as follows: Equilibration was performed with B30% for 3 minutes, followed by linear density gradients (B30%→B65%) for 15 minutes and (B65%→B100%) for further 1 minute, which was maintained for 5 minutes at B100%. Thereafter, the condition was again reverted to B30% to equilibrate for 10 minutes. The flow rate was 0.7 ml/min. Detection was performed at 520 nm. Under the conditions, standard pelargonidin, cyanidin and delphinidin were sequentially eluted in this order at retention times of approximately […], respectively.

Series [2] has as its target T1, VvGT5. Nature of the series: Glycosyl donor specificity of VvGT5, product amount by HPLC. Format: biochemical. The conditions noted are these: 100 µM quercetin, 1 mM glycosyl donor, pH 9.5, 30°C, 15 minutes. The procedure:
Next, the glycosyl donor specificity of this enzyme was examined. […] The reaction was started by adding the glycosyl acceptor. The reaction was stopped by adding an equal volume of 40% acetonitrile solution containing 0.1% TFA. After the reaction was stopped, the solution was centrifuged (15000 rpm, 2 mins., 4°C) and 100 µl of the resulting supernatant was provided for the HPLC analysis. The amounts of the products produced in the respective glycosyl donors were compared.

Substrate in series [3]: O=c1c(O)c(-c2ccc(O)cc2)oc2cc(O)cc(O)c12
Briefly: Kinetic analysis of VvGT5 (Km, kcat). The conditions noted are these: other: glycosyl acceptor substrate; purified His-tagged VvGT5; pH 9.5; 30.0 °C. The series is classed as biochemical, Vitis vinifera.

Substrate in series [4]: COc1cc(-c2oc3cc(O)cc(O)c3c(=O)c2O)ccc1O
Briefly: Kinetic analysis of VvGT5 (Km, kcat). The series is classed as biochemical, Vitis vinifera. The settings on record: other: glycosyl acceptor substrate; purified His-tagged VvGT5; pH 9.5; 30.0 °C.

Substrate in series [5]: O=c1c(O)c(-c2ccc(O)c(O)c2)oc2cc(O)cc(O)c12
Nature of the series: Kinetic analysis of VvGT5 (Km, kcat). The series is classed as biochemical, Vitis vinifera. The settings on record: other: glycosyl acceptor substrate; purified His-tagged VvGT5; pH 9.5; 30.0 °C.

Substrate in series [6]: O=C(O)[C@H]1O[C@H](OP(=O)(O)OP(=O)(O)OC[C@H]2O[C@@H](n3ccc(=O)[nH]c3=O)[C@H](O)[C@@H]2O)[C@H](O)[C@@H](O)[C@@H]1O
Briefly: purified protein, by the assay type. The conditions noted are these: other: glycosyl donor; purified His-tagged VvGT5; pH 9.5; 30.0 °C.

Consider `O=c1c(O)c(-c2ccc(O)c(O)c2)oc2cc(O)cc(O)c12` [quercetin], for which the “activity of VvGT5 on glycosyl acceptor” value in series [1] is “highest activity”.
Turning to `O=C(O)[C@H]1O[C@H](OP(=O)(O)OP(=O)(O)OC[C@H]2O[C@@H](n3ccc(=O)[nH]c3=O)[C@H](O)[C@@H]2O)[C@H](O)[C@@H](O)[C@@H]1O` [UDP-glucuronic acid], the “product formation with glycosyl donor” value in series [2] is “the product was obtained only when UDP-glucuronic acid was used as the substrate”.

B1: VvGT5 (Vitis vinifera) (protein)
chain: T1 sequence (C7G3B5 1-459)
Take B1: the Michaelis-Menten constant (Km) (in general, the concentration of substrate that gives half-maximal velocity) in series [3] came out at 10.8 ± 0.4 µM; in series [4] it was 7.92 ± 0.32 µM; in series [5], 5.60 ± 1.76 µM; in series [6], 17.7 µM. Also, the kcat (commonly the number of substrate molecules converted per active site and unit of time at saturation) in series [3] amounted to 6.05 ± 0.05 s⁻¹; in series [4], 0.413 ± 0.03 s⁻¹; in series [5], 7.16 ± 0.37 s⁻¹.

For the origin of these results see patent EP2390325A1, “FLAVONOID-3-GLUCURONYLTRANSFERASE AND POLYNUCLEOTIDE ENCODING SAME” (Suntory Holdings Limited, priority 2009, dated 2010).
